In the RNAGym collection of RNA variant scans (doi:10.1093/molbev/msab373):

B1: Azoarcus group I ribozyme (parent)
chain: GUGCCUUGCGCCGGGAAACCACGCAAGGGAUGGUGUCAAAUUCGGCGAAACCUAAGCGCCCGCCCGGGCGUAUGGCAACGCCGAGCCAAGCUUCGGCGCCUGCGCCGAUGAAGGUGUAGAGACUAGACGGCACCCACCUAAGGCAAACGCUAUGGUGAAGGCAUAGUCCAGGGAGUGGCGAAAGUCACACAAACCGG

Variants of: B1
Assay: reverse-splicing fitness (ratio to wild type); higher = more active; in vitro selection; Mg2+ level not given
How it was run: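 An in vitro group I ribozyme library with randomized positions was T7-transcribed and gel-purified. In triplicate, 10 pmol RNA in EPPS pH 7.5 was reacted with 50 pmoles of a 30-nt RNA substrate for 1 h at 37 °C across several added MgCl2 levels (1–48 mM), then stopped with EDTA. Products were reverse transcribed from a substrate-complementary primer, PCR-amplified and sequenced (HiSeq 4000). Fitness is a variant's read proportion after selection over that before, normalised to wild type.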

In order of falling reverse-splicing fitness:
1. A120G A145G  0.503
2. A120G A145C  0.479
3. A120C A145U C169U  0.441
4. A120G A145C U176C  0.227
5. A120G A145C C150U C169G  0.213
6. A120C A145U C169U U176C  0.187
7. A120G A145C U176A  0.179
8. A120C C169U U176C  0.174
9. A120G A145C C150U  0.166
10. A120C C169U U176A  0.155
11. A120G A145C C150U C169U  0.153
12. A120C C150U C169U U176C  0.143
13. A120C A145U C169U U176A  0.143
14. A120G A145G C150A C169G  0.141
15. A120G A145C C150U C169A  0.123
16. A120C C150U C169U U176A  0.118
17. A120C C150G U176C  0.114
18. A120G A145C C150G C169G  0.114
19. A120G A145G C150A C169U  0.107
20. A120G A145C C150U C169G U176C  0.107
21. A120G A145C C150U C169G U176A  0.102
22. A120G A145G C150A  0.0988
23. A120C C150A C169U  0.098
24. A120G A145C C150U C169U U176C  0.0977
25. A120G A145G C150A C169G U176C  0.0972
26. A120G A145C C150U U176C  0.0938
27. A120G A145C C150G C169U  0.0909
28. A120G A145C C150U C169U U176A  0.0904
29. A120G A145G C150G  0.088
30. A120C C150G U176A  0.0876
31. A120G A145C C150G  0.0854
32. A120G A145C C150U U176A  0.0853
33. A120G A145G C150A U176C  0.0809
34. A120G A145G C150A C169A  0.0788
35. A120G A145G C150A C169U U176A  0.0726
36. A120G A145G C150A C169U U176C  0.0707
37. A120G A145C C150G C169A  0.0659
38. A120G A145C C150U C169A U176C  0.0659
39. A120G A145G C150A C169G U176A  0.0656
40. A120C C150A C169U U176C  0.0627
41. A120G A145G C150A U176A  0.0568
42. A120G A145G C150G C169U U176C  0.0556
43. A120G A145C C150G U176C  0.0556
44. A120C C150A C169U U176A  0.0533
45. A120G A145G C150G U176A  0.0423
46. A120G A145C C150U C169A U176A  0.0422
47. A120G A145C C150A C169U U176A  0.0398
48. A120G A145C C150A  0.0374
49. A120G A145G C150G C169A U176C  0.0319
50. A120G A145C C150A C169U U176C  0.0294
51. A120G A145G C150G C169U U176A  0.0263
52. A120C C169A U176C  0.0233
53. A120C A145U C169U U176G  0.0184
54. A120G A145G C150G C169A U176A  0.0181
55. A120G A145G C150G C169G U176A  0.0179
56. A120C C169U U176G  0.0174
57. A120C C169A U176A  0.0173
58. A120C C169G U176C  0.0166
59. A120G A145C U176G  0.0166
60. A120C C169G U176A  0.016
61. A120C C150U C169G U176A  0.0153
62. A120G A145G C150G C169G U176C  0.0152
63. A120C C150G U176G  0.0145
64. A120C C150U C169G U176C  0.0142
65. A120C C150A C169A  0.0141
66. A120G A145G C150A U176G  0.0109
67. A120G A145C C150U U176G  0.0108
68. A120C C150U C169U U176G  0.0106
69. A120G A145C C150U C169U U176G  0.00915
70. A120C C150A C169G  0.00864
71. A120G A145G C150G C169U U176G  0.00777
72. A120G A145G C150G C169A U176G  0.00777
73. A120G A145C C150U C169G U176G  0.00726
74. A120G A145G C150A C169U U176G  0.00665
75. A120C C150A C169U U176G  0.00663
76. A120G A145G C150A C169G U176G  0.00637
77. A120G A145C C150A C169U U176G  0.00621
78. A120G A145G C150G C169G U176G  0.00607
79. A120G A145C C150U C169A U176G  0.00586
80. A120C C169A U176G  0.00454
81. A120C C150U C169G U176G  0.00427
82. A120C C169G U176G  0.0039
83. A120C A145U C169G U176G  0.0038
